Assay results taken from the supplement of paper PMC9170038.

Tested on: MS2 coat protein
Test: apparent KD of MS2 coat protein; designed switch direction (-1 OFF switch, 1 ON switch): -1; higher = weaker reporter binding
Method in brief: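 RNA switches sharing common flanks were transcribed by stalled E. coli RNA polymerase on Illumina chips. A doubling series of SNAP-549-labelled MS2 coat protein, from 0.7 or 1.5 nM to 3 µM, was applied in Tris-HCl pH 7.5 buffer with KCl, MgCl2, BSA, DTT, tRNA and Tween-20. Each step lasted 0.8–1.5 h at the bottom of the series and 10–20 min at the top. Normalised cluster fluorescence was curve-fitted, giving apparent KD as the per-design median over clusters.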

[1] = Eterna round: R95, input ligand: FMN 200 uM
[2] = Eterna round: R95, input ligand: microRNA oligo, concentration not stated
[3] = Eterna round: R95, input ligand: none
[4] = input ligand: microRNA oligo, concentration not stated

| Sequence | apparent KD of MS2 coat protein [1] [nM] | apparent KD of MS2 coat protein [2] [nM] | apparent KD of MS2 coat protein [3] [nM] | apparent KD of MS2 coat protein (input ligand: FMN 200 uM) [nM] | apparent KD of MS2 coat protein [4] [nM] | apparent KD of MS2 coat protein (input ligand: none) [nM] |
| --- | --- | --- | --- | --- | --- | --- |
| AAAAAACAAGGAUAUACUAAAAAAAAAUGUGUUAAUUUUUCACAUGAGGAUCACCCAUGUAGAAGGUGUUAAAA [JR_Exclusion2_Sub006] (puzzle: Exclusion 2) | 54.7 | 79 | 93.6 |  |  |  |
| AAAAACAGAGGAUAUGCACGCCGACCCGGGCGGGAAGUCGGACAUGAGGAUCACCCAUGUAGAAGGCUGAAAAA [Exclss2-VI] (puzzle: Exclusion 2) | 13.3 | 10.5 | 11.5 |  |  |  |
| AAAAAGCGAGGAUAUGCGGGCGGGUGCGGCCAGCCGAUGUGACAUGAGGAUCACCCAUGUAGAAGGCGCAAAAA [Excls2-VII] (puzzle: Exclusion 2) |  | 12.3 |  |  |  |  |
| AAAAAUUACAUGAGGAUCACCCAUGUAGAGUGGGAAGAGAGAUAGGAUAUGAUGUGAGAAUCAUAUCAGAAGGAUCGAGACUCA [AK ExNG3-2.1] (Eterna round: R96, puzzle: Exclusion NG 3) |  |  |  | 129 | 126 | 119 |
| AAAACAAACGAAGGAUAUGCGCGAAAAUGACUAGCAGAAGGUCGACACGGGCGGAUCCGACAUGAGGAUCACCCAUGUAAAACU [Tied] (Eterna round: R96, puzzle: Exclusion NG 1) |  |  |  | 1200 | 389 | 490 |
| AAAACACAUGAGGAUCACCCAUGUGAGGAUAUGCUAUGGAAAAUAAAAAUAAAACAUAGCAGAAGGCACAAAGG [Denovo 18] (Eterna round: R96, puzzle: Exclusion 1) |  |  |  |  | 54 |  |
| AAAACCUCUGUCAGGAUAUCCAUGCGUCCAAAAGCGGAGAAGGGACAUGAGGAUCACCCAUGUUAGCAAAAUCA [Ceenxequ] (puzzle: Brourd's mod of Exclusion 4) | 119 | 34.9 | 38.5 |  |  |  |
| AAAACGUGAGGAUAUCCAAUAUAUGACAUGAGGAUCACCCAUGUUUCCACUCGUACCUCCGGAGAAGGCACAUUUU [Ex5 #79] (Eterna round: R97, puzzle: Exclusion 5) |  |  |  | 62.7 |  | 67 |
| AAAACUCACGUAGGAUAUCAUUCCUUAAGGUAGUGAGAAGGACGUGACUACAUGUCCUAAAACAUGAGGAUCACCCAUGUAGGC [Riis] (Eterna round: R96, puzzle: Exclusion NG 1) |  |  |  |  | 24.2 |  |
| AAAAGGCUAGGAUAUACAUGAGGAUCACCCAUGUGAGGGCACGGCCGGCGCGGGCCCGGUAGAAGGAGUCAAAA [Exc;s3-IX] (puzzle: Exclusion 3) |  | 13.4 |  |  |  |  |
| AAAAGGUGAGGAUAUACAAUGAUCCUCAUAAUAACCCGAAGACAUGAGGAUCACCCAUGUAGAAGGCACAAAUA [Istive] (puzzle: Exclusion 2) | 33.4 | 16.5 | 19.8 |  |  |  |
| AAAAGUUUGGAGGAUAUCCAUCCAAACGGAUAAGGAGAAGGCCGGACAUGAGGAUCACCCAUGUGAUUAGGUUA [Isradiri] (puzzle: Exclusion 6) |  | 13.4 |  |  |  |  |
| AAAAUAAAAGCAGGAUAUCGACCUCCCAAGUGGCGAGAAGGGCUAGACGGGCGGUCUAACAUGAGGAUCACCCAUGUCAACAAA [Soorante] (Eterna round: R96, puzzle: Exclusion NG 1) |  |  |  | 93.4 | 23.5 | 34.7 |
| AAAAUACAUGAGGAUCACCCAUGUGAGGAUAUGAGAGUCAACUCGAGAGAGUUGAUUCUCAGAAGGCACAUAAA [JR_Ex1_Sub066] (Eterna round: R97, puzzle: Exclusion 1) |  |  |  | 228 |  | 53.7 |
| AAACAACGGACAGGAUAUCCGAAAAUAAAGCUAGGAGAAGGGUCGAAAACAUGAGGAUCACCCAUGUGCGUGGCGGGUUCUUAG [Zaerqu] (Eterna round: R96, puzzle: Exclusion NG 1) |  |  |  | 25.6 | 13.4 | 21.2 |
| AAACAAGCUCGGGUGAGGGAGACCACAGAAGGACCCAAAACAUGAGGAUCACCCAUGUCAAGAGUAGAGCUUGGCAU [high scoring solution 31] (Eterna round: R96, puzzle: Sensor v2, turn-off variant 2) |  |  |  | 71 | 57.4 | 75.4 |

| Sequence | apparent KD of MS2 coat protein [1] [nM] | apparent KD of MS2 coat protein [2] [nM] | apparent KD of MS2 coat protein [3] [nM] | apparent KD of MS2 coat protein (input ligand: FMN 200 uM) [nM] | apparent KD of MS2 coat protein [4] [nM] | apparent KD of MS2 coat protein (input ligand: none) [nM] |
| --- | --- | --- | --- | --- | --- | --- |
| AAACCGCAAGGAUAUACUUGCGGUGGUGUUCGAAACUUUCUACUUGAGGAUCACCCAAGUAGAAGGUGCGGUAA [jl-ex2.4.71 ViennaUCT mod] (Eterna round: R97, puzzle: Exclusion 2) |  |  |  | 13.2 |  | 12.9 |
| AAACCUGCCCAUGACCGCAAGCUUUUCGCUUGUCUUACCACAUGAGGAUCACCCAUGUGACAUGGGCUCCUUAUAAA [Usorle] (puzzle: Sensor v3, turn-off variant 2) | 14 | 11.8 | 11.4 |  |  |  |
| AAACGGCAGGGAGGAUAUGCUUACCUGGGUCGUCUUCAGACAUGAGGAUCACCCAUGUAGUCGACGCAGAAGGCCCUCAAAGCC [JL ViennaUCT Ontiis mod 3] (Eterna round: R96, puzzle: Exclusion NG 2) |  |  |  | 413 | 38.7 | 51.1 |
| AAACGGGUGUCCUCGUUUUCAACAUGAGGAUCACCCAUGUUCGAGGAUAUCCAAUAAGCUCUUCAGGAGAAGGCGAACAUAAAA [Anenence] (Eterna round: R96, puzzle: Exclusion NG 3) |  |  |  | 20.1 | 13.3 | 15.7 |
| AAACUGUGAGGAUAUGGUGAGUAGUGCCUGAGCGCUGCUCACCAGAAGGCACAUGAGGAUCACCCAUGUAUAAA [Mat - Exclusion 4 - Mod of JL - D6] (puzzle: Exclusion 4) |  | 24.2 |  |  |  |  |
| AAAGAACAUGAGGAUCACCCAUGUAAGGAUAUCCAAAAGAAGGAAAGAAAGAAAAGAAGGAGAAGGUACAAGAA [JR_Exclu1_Sub041] (puzzle: Exclusion 1) | 33.5 | 60.7 | 84.5 |  |  |  |
| AAAGCCAAGCGAGGAUAUGCGAUAGUUGAUCUUCGUGAGGACAUGAGGAUCACCCAUGUGCUGCAGCAGAAGGCGCAGGUAAAG [Anramaqu] (Eterna round: R96, puzzle: Exclusion NG 2) |  |  |  | 754 | 140 | 318 |
| AAAGCGUGAGGAUAUGAGGCGCCGGGCCGGUUGGUGCGGAUUCAGAAGGCACAUGAGGAUCACCCAUGUAGGAA [Excls4-III] (puzzle: Exclusion 4) |  | 22.9 |  |  |  |  |
| AAAGGAUGCCUAGGAUAUUGACUAAGAAAGGAUUAAGAAGGAGGAAAUAUAUGAGGGAUCCACAUGAGGAUCACCCAUGUACAC [Xesousbege] (Eterna round: R96, puzzle: Exclusion NG 1) |  |  |  | 769 | 315 | 607 |
| AAAUAAAGCCUAGGAUAUCCGGACGAUAACCCAGGAGAAGGAGGAUGUCGAAGAAGACAUGAGGAUCACCCAUGUGCGUCCUCU [Ancegege] (Eterna round: R96, puzzle: Exclusion NG 1) |  |  |  | 10.3 | 10.6 | 15.4 |
| AAAUACAAAGGAUAUACAUGAGGAUCACCCAUGUAGGUCAAUGCGCGGGCGAUGCCACGUAGAAGGUUGAAUAC [EX3 C.12] (Eterna round: R97, puzzle: Exclusion 3) |  |  |  | 27.5 |  | 24.1 |
| AAAUACAAGCAAAGAUCCUACAUGAGGAUCACCCAUGUGUUCGUCUUAUAAAGUACUAUCACGAAAGUGAUAGUACA [Sensor 3, v1 - 18] (puzzle: Sensor v3, turn-off variant 1) | 309 | 1100 | 198 |  |  |  |
| AAAUAGCAAGUGUGAUCCUACAUGAGGAUCACCCAUGUGUUCGUCUUAUUUGAAGACAACACAAAAGUGUUGUCUUA [Omei Mir OFFv1 B2] (Eterna round: R97, puzzle: Sensor, turn-off variant 1) |  |  |  | 32.9 |  | 24.6 |
| AAAUAUAAGCAAAGAUCCUACAUGAGGAUCACCCAUGUGCUCGUCUUAUAAAGUACUAUCACGAAAGUGAUAGUACA [Sensor 3, v1 - 19] (puzzle: Sensor v3, turn-off variant 1) | 117 | 49 | 215 |  |  |  |
| AAAUCCGCUGAGGAUAUCAUGACUGAGAGGUCAUGAGAAGGCGGUACAUGAGGAUCACCCAUGUCUAUGGGCAA [Ex-6 Malc#28] (puzzle: Exclusion 6) |  | 386 |  |  |  |  |
| AAAUUAACUUAGGAUAUCGGCUGAAACAGCGUACGAGAAGGAAGUACAUGAGGAUCACCCAUGUGUCCCGUGCU [Teentibi] (Eterna round: R97, puzzle: Exclusion 6) |  |  |  | 68.6 |  | 38.1 |
